From PMC7335789, “Bifurcated binding of the OmpF receptor underpins import of the bacteriocin colicin N into Escherichia coli” (The Journal of Biological Chemistry, 2020)
Ends that are not written are not given here.

T1: OmpF on E. coli cells (E. coli (endogenous in JW2203-1, …, UniProt P02931 23-362))
T1 sequence (looked up): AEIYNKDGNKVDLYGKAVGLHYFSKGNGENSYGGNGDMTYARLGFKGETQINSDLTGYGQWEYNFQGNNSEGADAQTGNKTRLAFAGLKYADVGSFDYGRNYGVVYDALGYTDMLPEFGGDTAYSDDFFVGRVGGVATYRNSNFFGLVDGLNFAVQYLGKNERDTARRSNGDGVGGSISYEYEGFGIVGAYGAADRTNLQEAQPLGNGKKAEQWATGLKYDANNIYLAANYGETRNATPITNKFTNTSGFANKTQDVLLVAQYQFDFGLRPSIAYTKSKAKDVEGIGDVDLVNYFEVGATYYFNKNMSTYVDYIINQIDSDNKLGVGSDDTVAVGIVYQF

B1: OmpF (natural protein, E. coli (endogenous in B^E3000), UniProt P02931 23-362, looked up)
chain: T1 sequence (looked up)
notes: also called OmpF trimer; purified OmpF lacking LPS
B2: ColN^1-185 (ColN without the pore forming domain) (domain or fragment)
chain: MGSNGADNAHNNAFGGGKNPGIGNTSGAGSNGSASSNRGNSNGWSWSNKPHKNDGFHSDGSYHITFHGDNNSKPKPGGNSGNRGNNGDGASAKVGEITITPDNSKPGRYISSNPEYSLLAKLIDAESIKGTEVYTFHTRKGQYVKVTVPDSNIDKMRVDYVNWKGPKYNNKLVKRFVSQFLLFRK
B3: ColN^1-185-mCherry (domain or fragment)
chain: B2 chain
notes: also called fluorescently labeled ColN
B4: ColN^91-185 (ColN central domain) (domain or fragment)
chain: SAKVGEITITPDNSKPGRYISSNPEYSLLAKLIDAESIKGTEVYTFHTRKGQYVKVTVPDSNIDKMRVDYVNWKGPKYNNKLVKRFVSQFLLFRK
notes: also called ColN-R
B5: ColN^2-19 peptide (peptide)
peptide: GSNGADNAHNNAFGGGKN-NH2
notes: also called ColN-OBS; ColN OBS; source: synthetic peptide, bought: Activotec

Columns and labels:
[1] = molecular target: the molecule itself; assay: native MS; 10 uM OmpF and 10 uM ColN in 100 mM ammonium acetate pH 6.9, 1% beta-OG, trypsin 37 C 2 h, gel filtration, OmpF fractions analysed in 200 mM ammonium acetate, 1% beta-OG
OmpF [2] = molecular target: B1; assay: ITC; conditions: one partner purified
OmpF [3] = molecular target: B1; assay: ITC; MicroCal ITC200, 25 C, 20 mM potassium phosphate pH 6.5, 1% beta-OG; purified OmpF trimer without LPS in the cell, ColN construct or peptide in the syringe; conditions: both partners purified
OmpF on E. coli cells = molecular target: T1, OmpF on E. coli cells; assay: widefield fluorescence microscopy of labelled cells; conditions: one partner purified

| Binder | stoichiometry N [1] | Kd (OmpF [2]) | dH (OmpF [2]) | Kd (OmpF [3]) | dH (OmpF [3]) | stoichiometry N (OmpF [3]) | binding to cells with OmpF and OmpC (BW25113) relative to OmpF-only cells (OmpF on E. coli cells) |
| --- | --- | --- | --- | --- | --- | --- | --- |
| B1 | 3 |  |  |  |  |  |  |
| B2 |  | 119 nM | -38.8 kcal/mol | 214 nM | -27.7 kcal/mol | 2.69 ColN^2-185/OmpF |  |
| B3 |  |  |  |  |  |  | ~0.5 fold |
| B4 |  |  |  | 14000 nM | -3.8 kcal/mol | 3.82 ColN^90-185/OmpF |  |
| B5 |  |  |  | 1400 nM | -17.9 kcal/mol | 3.67 peptide/OmpF |  |
